Assays:
raptor = target: T1, raptor (human (HEK-293T cells), UniProt Q8N122); test: FLAG IP from transfected HEK-293T cells, immunoblot
T1 construct: endogenous; Named only on the sheet
Method: HEK-293T cells were cultured in DMEM supplemented with 10% inactivated fetal bovine serum, penicillin (100 IU/mL), and streptomycin (100 μg/mL) and maintained at 37° C. and 5% CO₂. Two million HEK-293T cells were plated in 10 cm culture dishes.
Transfection mixes were taken up to a total of 5 μg of DNA using empty pRK5. HEK-293T cells stably expressing FLAG-tagged proteins were rinsed once with ice-cold PBS and lysed in ice-cold lysis buffer (40 mM HEPES pH 7.4, 1% Triton X-100, 10 mM β-glycerol phosphate, 10 mM pyrophosphate, 2.5 mM MgC12 and 1 tablet of EDTA-free protease inhibitor (Roche) per 25 ml buffer). The soluble fractions from cell lysates were isolated by centrifugation at 13,000 rpm for 10 min in a microcentrifuge. […] Immunoprecipitates were washed three times with lysis buffer containing 500 mM NaCl. Immunoprecipitated proteins were denatured by the addition of 50 μL of sample buffer and incubation at RT for 30 min. It is critical that the samples containing SLC38A9 are neither boiled nor frozen prior to resolution by SDS-PAGE and analysis by immunoblotting. A similar protocol was employed when preparing samples for mass spectrometry.

endogenous SLC38A9 = target: T2, endogenous SLC38A9 (human, UniProt Q8NBW4 1-561, limits assumed); test: FLAG IP from HEK-293T cells stably expressing the bait, - or + amino acids; immunoblot
T2 construct: Endogenous protein of HEK-293T cells, found by LC-MS-MS or immunoblot; also called SLC38A9 (NCBI Gene ID: 153129)
T2 sequence: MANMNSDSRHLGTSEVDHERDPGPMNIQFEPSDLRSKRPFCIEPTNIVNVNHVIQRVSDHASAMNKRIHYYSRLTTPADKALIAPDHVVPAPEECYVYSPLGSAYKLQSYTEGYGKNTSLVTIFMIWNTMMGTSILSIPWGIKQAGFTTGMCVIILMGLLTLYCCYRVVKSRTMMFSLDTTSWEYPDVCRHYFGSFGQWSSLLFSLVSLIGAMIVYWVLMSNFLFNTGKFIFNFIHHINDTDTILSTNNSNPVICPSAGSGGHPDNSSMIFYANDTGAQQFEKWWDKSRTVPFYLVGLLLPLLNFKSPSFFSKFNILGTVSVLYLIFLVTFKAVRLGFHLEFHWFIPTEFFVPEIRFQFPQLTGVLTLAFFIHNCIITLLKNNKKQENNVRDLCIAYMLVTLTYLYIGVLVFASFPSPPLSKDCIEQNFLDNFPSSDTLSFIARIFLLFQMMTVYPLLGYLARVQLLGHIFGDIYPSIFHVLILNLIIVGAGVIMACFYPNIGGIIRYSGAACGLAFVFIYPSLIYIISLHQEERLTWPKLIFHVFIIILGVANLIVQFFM

T1 sequence (Q8N122 whole entry): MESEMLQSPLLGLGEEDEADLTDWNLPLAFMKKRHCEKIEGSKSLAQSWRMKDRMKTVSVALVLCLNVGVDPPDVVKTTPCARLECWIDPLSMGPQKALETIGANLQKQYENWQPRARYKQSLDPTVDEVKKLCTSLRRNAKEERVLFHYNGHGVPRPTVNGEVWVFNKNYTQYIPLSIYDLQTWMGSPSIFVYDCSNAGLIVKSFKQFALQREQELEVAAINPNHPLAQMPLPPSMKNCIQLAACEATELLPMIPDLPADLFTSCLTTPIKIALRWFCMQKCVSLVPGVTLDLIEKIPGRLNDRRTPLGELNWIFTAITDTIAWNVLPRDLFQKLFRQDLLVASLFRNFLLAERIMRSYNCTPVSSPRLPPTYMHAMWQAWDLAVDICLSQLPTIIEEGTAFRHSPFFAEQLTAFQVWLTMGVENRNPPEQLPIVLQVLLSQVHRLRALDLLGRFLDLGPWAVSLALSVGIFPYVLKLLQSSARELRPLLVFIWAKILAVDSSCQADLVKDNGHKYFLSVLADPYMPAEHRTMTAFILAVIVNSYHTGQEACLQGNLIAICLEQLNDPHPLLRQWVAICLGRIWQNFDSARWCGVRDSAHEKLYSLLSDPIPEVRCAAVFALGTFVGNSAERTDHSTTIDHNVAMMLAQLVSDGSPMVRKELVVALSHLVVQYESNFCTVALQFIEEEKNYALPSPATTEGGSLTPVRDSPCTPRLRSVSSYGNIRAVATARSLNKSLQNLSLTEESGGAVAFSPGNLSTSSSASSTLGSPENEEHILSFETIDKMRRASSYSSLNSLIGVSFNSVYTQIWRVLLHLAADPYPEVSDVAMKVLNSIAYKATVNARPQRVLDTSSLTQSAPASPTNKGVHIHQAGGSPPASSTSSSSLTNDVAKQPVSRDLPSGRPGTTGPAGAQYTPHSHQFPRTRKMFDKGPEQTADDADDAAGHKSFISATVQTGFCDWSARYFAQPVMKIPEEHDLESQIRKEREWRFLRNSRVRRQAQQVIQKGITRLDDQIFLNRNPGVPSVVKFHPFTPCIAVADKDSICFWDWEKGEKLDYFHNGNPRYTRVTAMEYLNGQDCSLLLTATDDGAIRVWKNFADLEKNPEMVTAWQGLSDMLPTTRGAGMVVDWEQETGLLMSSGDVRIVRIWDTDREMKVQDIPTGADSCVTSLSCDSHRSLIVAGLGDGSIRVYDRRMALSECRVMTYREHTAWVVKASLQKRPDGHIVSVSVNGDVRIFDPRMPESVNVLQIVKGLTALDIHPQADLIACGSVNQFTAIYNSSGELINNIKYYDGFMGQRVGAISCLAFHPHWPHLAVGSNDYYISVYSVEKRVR

binding result (raptor): no binding
binding result (endogenous SLC38A9): no binding
B1: FLAG-metap2 (enzyme)
chain: DYKDDDDKMAGVEEVAASGSHLNGDLDPDDREEGAASTAEEAAKKKRRKKKKSKGPSAAGEQEPDKESGASVDEVARQLERSALEDKERDEDDEDGDGDGDGATGKKKKKKKKKRGPKVQTDPPSVPICDLYPNGVFPKGQECEYPPTQDGRTAAWRTTSEEKKALDQASEEIWNDFREAAEAHRQVRKYVMSWIKPGMTMIEICEKLEDCSRKLIKENGLNAGLAFPTGCSLNNCAAHYTPNAGDTTVLQYDDICKIDFGTHISGRIIDCAFTVTFNPKYDTLLKAVKDATNTGIKCAGIDVRLCDVGEAIQEVMESYEVEIDGKTYQVKPIRNLNGHSIGQYRIHAGKTVPIVKGGEATRMEEGEVYAIETFGSTGKGVVHDDMECSHYMKNFDVGHVPIRLPRTKHLLNVINENFGTLAFCRRWLDRLGESKYLMALKNLCDLGIVDPYPPLCDIKGSYTAQFEHTILLRPTCKEVVSRGDDY
notes: Control bait; also called control protein Metap2

Reference: US20170082633A1 (WHITEHEAD INSTITUTE FOR BIOMEDICAL RESEARCH, published 2017)
